The text below walks through data of US20260167959A1, “APTAZYME-BASED REGULATABLE GENE EXPRESSION SYSTEMS” (REJUVENATE BIO INC, priority 2022, published 2026).

The labels stand for the following.
B1: RA023 (nucleic acid)
DNA: GCGCGTCCTGGATTCGCGGAAACGCGTGAGAATACCAGCATCGTCTTGATGCCCTTGGAAGTCTCACATCCAGCTGACGAGTCCCAAATAGGACGAAACGCGC
modifications: expressed or natural sequence
B2: RA241 (nucleic acid)
DNA: GCGCGTCCTCCGGAATACCAGCATCGTCTTGATGCCCTTGGAAGTCCGGGGATTCGCGGAAACGCGTACATCCAGCTGACGAGTCCCAAATAGGACGAAACGCGC
modifications: expressed or natural sequence
B3: RA240 (nucleic acid)
DNA: GCGCGTCCTGGATTCGCGGAAACGCGTACATCCAGCTGACGAGTCCCCGAGAATACCAGCATCGTCTTGATGCCCTTGGAAGTCTCGAAATAGGACGAAACGCGC
modifications: expressed or natural sequence
B4: RA239 (nucleic acid)
DNA: GCGCGTCCTGGATTCGCGGAAACGCGTACATCCAGCTGACCCGGAATACCAGCATCGTCTTGATGCCCTTGGAAGTCCGGGAGTCCCAAATAGGACGAAACGCGC
modifications: expressed or natural sequence
B5: RA237 (nucleic acid)
DNA: GCGCGTCCTGGATTCGCGGAAACGCGTACATCCAGCTGACGGAGAATACCAGCATCGTCTTGATGCCCTTGGAAGTCTCAGTCCCAAATAGGACGAAACGCGC
modifications: expressed or natural sequence
B6: RA243 (nucleic acid)
DNA: GCGCGTCCTGGATTCGCGGAAACGCGTACATCCAGCCCGGAATACCAGCATCGTCTTGATGCCCTTGGAAGTCCGGTGACGAGTCCCAAATAGGACGAAACGCGC
modifications: expressed or natural sequence
B7: RA235 (nucleic acid)
DNA: GCGCGTCCTGGATTCGCGGAAACGCGTACATCCAGCTGACGAGTCCCAAATAGGAGAGAATACCAGCATCGTCTTGATGCCCTTGGAAGTCTCCGAAACGCGC
modifications: expressed or natural sequence
B8: RA238 (nucleic acid)
DNA: GCGCGTCCTGGATTAGAATACCAGCATCGTCTTGATGCCCTTGGAAGTCTCGCGGAAACGCGTACATCCAGCTGACGAGTCCCAAATAGGACGAAACGCGC
modifications: expressed or natural sequence
B9: RA244 (nucleic acid)
DNA: GCGCGTCCTGGATTCGCGGAAACGCGTCCGGAATACCAGCATCGTCTTGATGCCCTTGGAAGTCCGGACATCCAGCTGACGAGTCCCAAATAGGACGAAACGCGC
modifications: expressed or natural sequence
B10: RA236 (nucleic acid)
DNA: GCGCGTCCTGGATTCGCGGAAACGCGTACACCGGAATACCAGCATCGTCTTGATGCCCTTGGAAGTCCGGTCCAGCTGACGAGTCCCAAATAGGACGAAACGCGC
modifications: expressed or natural sequence
B11: RA242 (nucleic acid)
DNA: GCGCGTCCTGGATTCCGGAATACCAGCATCGTCTTGATGCCCTTGGAAGTCCGGCGCGGAAACGCGTACATCCAGCTGACGAGTCCCAAATAGGACGAAACGCGC
modifications: expressed or natural sequence

The subject of the data set is Renilla luciferase RNA. As to the kind of experiment: Barcoded aptazyme variant library screen: un-cleaved Renilla luciferase RNA by barcode read counts, HEK293-T cells. Type of data set: cell-based. To be noted: un-cleaved Renilla luciferase RNA, HEK293-T cells cultured with 1 mM theophylline (ON) over without theophylline (OFF); barcode read counts, triplicate. The procedure, abridged: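 Barcode sequencing of cDNA versus DNA, normalized per aptazyme, gave the un-cleaved Renilla luciferase RNA fraction and fold-change with versus without theophylline (triplicates). Library: T3H48 ribozyme with one of seven theophylline aptamer variants inserted at each position, placed in the Renilla 3′ UTR of a dual-luciferase vector.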
Regarding B1, the “Fold change in RNA expression between the ON state and the OFF state” value (“Fold change” below) came out at 2.6 fold.

Turning to B2, the “Fold change” value was 1.1 fold.

Take B3: the “Fold change” value came out at 1.1 fold.

For the molecule B4, the “Fold change” value came out at 1.1 fold.

Turning to B5, the “Fold change” value is listed as 1.1 fold.

In the case of B6, the “Fold change” value is on record as 1.1 fold.

As to B7, the “Fold change” value came to 1.1 fold.

In the case of B8, the “Fold change” value is on record as 1.1 fold.

As for B9, the “Fold change” value worked out at 1.1 fold.

As to B10, the “Fold change” value is 1.1 fold.

Turning to B11, the “Fold change” value is 1.1 fold.
